Tested on: MutY (Escherichia coli)
Settings: A.G to C-G correction by complementation of mutS mutY extract; fraction V

A.G mismatch heteroduplex
activity: 480000 units/mg

— US5556750
